# Data: the nanobody polyreactivity screen of Harvey et al. (2022)
# Assay: yeast display, Sf9 membrane polyspecificity reagent, FACS + sequencing; frameworks hold sequencing errors
# Outline: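 Sorting gates, low and high (top ~1%), were placed on anti-HA fluorescence to track expression and on streptavidin fluorescence to track reagent binding. A clone's polyreactivity label is taken from the gate it came out of. The reagent was 10% biotinylated, detergent-solubilized Sf9 membrane, applied for 1 hour at 4 °C to galactose-induced yeast display cells.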
sequence,measurement,value
QVQLVESGGGLVQAGGSLRLSCAASGFTFVPYAMGWYRQAPGKERELVAAISSRGDSTYYADSVKGRFTISRDNAKNTVYLQMNSLKPEDTAVYYCNARTTPHMDYWGQGTQVTVSS,polyreactivity (PSR sort gate),low polyreactivity
QVQLVESGGGLVQPGGSLRLSCAASGRTYYINAMGWYRQAPGKERELVATISKSGGSTNYADSEKGRFTISRDNAMNTFYLQMNSLKPEDTAVYYCAADTSGGSWGRGRWKFGYWGQGTQVTVSS,polyreactivity (PSR sort gate),high polyreactivity
QVQLVESGGGLVQAGGSLRLSCSASGSIIGHNAMGWYRQAPGKEREIVAAITWRGSNTYYADSVKGRFTISRDNAKNTVYLQMNSLKPEDTAVYYCAAEFYYRTQWYYYWGQGTQVTVSS,polyreactivity (PSR sort gate),high polyreactivity
QVQLVESGGGKVQAGGSLRLSCAASGRTFRWYAMGWYRQAPGKERELVAAITSSSSTNYADSVKGRFTISRDNAKNTVYLQMNSLKPEDTAVYYCAKGWNWYDLGESGYWGQGTQVTVSS,polyreactivity (PSR sort gate),low polyreactivity
QVQLVESGGGLVQAGGSLRLSCAASGRTFYRNAMGWYIQAPGKERELVAAITWSGVSTYYADSVKGRFTISRDNAKNTVYLQMNSLKPEDTAVYYCARGRVLRNGHYFQLRNYDYWGQGTQVTVSS,polyreactivity (PSR sort gate),high polyreactivity
QVQLVESGGGLVQAGGSLRLSCAASGITLGYYAMGWYRQAPGKERELVAAISYSSGSTYYADSVKGRFTIARDTAKNTVYLQMNSLKPEDTAVYYCAKYVTYYLPTYSPSGKHDYWGQVTQVTVSS,polyreactivity (PSR sort gate),low polyreactivity
QVQLVESGGGLVQAGGSLRLSCAASGSILIGNAMGWYRQAPGKERELVAAIRSGGSTNYADSVKGRFTISRDNAKNTVYLHMNSLKPEDTAVYYCARDVYVYYPYYAYDYWGQGTQVTVSS,polyreactivity (PSR sort gate),low polyreactivity
QVQLVDSGGGLVQAGGSLRIIRAASGSISGYNAMGWYRQAPGKERELVAAIYRSDGKDYADSVKGRFTISRDNAKNTVYLQMNSMIPEDTAVYYCIAVKWSVVGYVLGFYRDDYWGQGTQVTVSS,polyreactivity (PSR sort gate),low polyreactivity
QVQLVESGGGLVQAGGSLRLSCAASGSTFTLYAMGWSRPAPGKERELVATISWNGGRTYYADSVKGRFTISRDNAKNTVYLQMNSLKPEDTAVYYCAADTYDADYDYWGQGTQVTVSS,polyreactivity (PSR sort gate),high polyreactivity
QVQLVESGGGLVQAGGSLRLSCAASGSTFQYYAMGWYRQAPGKEREMVAAISASVDTTFYADSVKGRFTISRDNAKNTVYLQMNSLKPEDTAVYYCATDWPHWRKVYWFDYWGQGTQVTVSS,polyreactivity (PSR sort gate),low polyreactivity
QVQLVESGGGLVQAGGSLRLSCAASGSTFPVNTMGWYRQAPGKERELVAAITKNGANTYYADSVKGRFTLSRDNAKNTVFLQMNSLKPEDTAVYYCAARYVYGKSYSRWLVELDYWGQATQVTVSS,polyreactivity (PSR sort gate),low polyreactivity
QVHLVESGGGLVQAGGSLRLSCAASGGIFPGYAMGRYRKAPGKERELVAAITKRGGRTYYADSVKGRFTISRDNAKNTVYLQMNSLKPEDTAVYYCAADYYAAYHLPDQDYDYWGQGTQVTVSS,polyreactivity (PSR sort gate),high polyreactivity
QVQLVESGGGLVQAGGSLRLSCAASGSILHVYAMGWYRQAPGKERELVAAISKSGTRTYYAVSVKGRFTISRDNAKNTVYLQMNRLKPEDTAVYYCAAERSQYVYSTDPYGYDYWGQGTQVTVSS,polyreactivity (PSR sort gate),high polyreactivity
QVQLVESGGGLVQAGGSLRLSCAASGNTFVPYAMGWYRQAPGKERELVAAISWRGGSTYYADSVKGRFTISRDNAKNTVYLQMNSLKPEDTAVYYCAARTFYRPGLAGGYWGQGTQVTVSS,polyreactivity (PSR sort gate),high polyreactivity
QVQLVESGGGLVQAGGSLRLSCAASGSILTSYAMGWSRQAPGKERELVAAISTTGGSTYYADSVKGRFTISRDNAKNTVYLQMNRLKPEDSAVYYCAAAGRTYRPGTGGYGYWGQGTQVTVSS,polyreactivity (PSR sort gate),low polyreactivity
QVQLVESGGGLVQAGGSLRISCAASGSIFVLYAMGWYRQAPGKERELVATITWSGDSTYYADSVKGRFTISRDNAKNTVYLQMNSLKPEDTAVYYCNKRIWDQYDWGQGTQVTVSS,polyreactivity (PSR sort gate),low polyreactivity
QVQLVESGGGLVQAGGSLRLSCAASGFIFYYNTMGWYRQATGKESELVDSITWSGDTTYYADSVKGRFTISRDNAKKTVYLQMNSLKPEDTAVYYCAAVHYYPYRRYDYWGQGTQVTVSS,polyreactivity (PSR sort gate),low polyreactivity
QVQLVESGGGLVQAGGSLRLSCAASGNTFVINTMGWYRQAPGKERELVAGISRRGTSTYYEDSVKGRFTISRDNAKNSVYLQMNSLKPEDTEVYYCAVYSEIVRYEYWGQGTQVTVSS,polyreactivity (PSR sort gate),high polyreactivity
QVQLVESGGGLVQAGGSLRLSCAASGFTFLYYAMGWYRQAPGKERELVAAISASSDRTYYADSVKGRFTISRDNAMNTVYLQMNSLKPDDTAVYYCAAYNSRVGGYRGYGYWGQGTLVTVSS,polyreactivity (PSR sort gate),high polyreactivity
QVLLVESGGGLVQAGGSLRLSCAASGSTFYYYGMGWYRQAPGKEREFVAAISWGGGSTRYADSVKGRITISRDNAKNTVYLQMNSLKPEDTAVYYCAARYPHYDYYYWGQGTQVTVSS,polyreactivity (PSR sort gate),high polyreactivity
QVQLQESGGGLVLAGGSLRLSCAASGSITAQAYMGWDRQAPGKEREHVAGINYGDNTNYADSVKGRFTISRDNEHRVSADEQPETGRYRGVLLRGFLEIFYYYIFWGQGTQVTVSS,polyreactivity (PSR sort gate),high polyreactivity
QVQLVESGGGLVQAGGSLRLSCAASGSTFVSYAMGGSRQAPGKERELVAAISRSGGSTYYADSVKGRFTISRDTAKNTVYLQMNSLKPEDTAGYYCAADGRGPSKRNRDYWGQGTQVTVSS,polyreactivity (PSR sort gate),high polyreactivity
QVQLVESGGGLVQAGGSLRLSCAASGSTFGGYAMGWYRQAPGKERELVAAISKSGGSTYYADSVKGRFTISRDNAKNTVYLQMNSLKPEDTAVYYCNAPYKRSPYNYWGQGTQVTVSS,polyreactivity (PSR sort gate),high polyreactivity
QVQLVESGGGLVQAGGSLRLSCAASGSTFSDYTMGWFRQAPGKERELVAAITTIGGSTYYADSVKGRFTISRDNAKNTVYLQMNSLKPEDTAVYYCAASYYYPLEYYYWGQGTQVTVSS,polyreactivity (PSR sort gate),low polyreactivity
QVQLVESGGGLVQAGGSLRLSCAPSGRTFGSNTMGLYRQAPGKEIELVAGITFSSGSTYYADSVKGRFTISRDNANNTVYLQMNSLKPEDTAVYDCAVRNASKNRKYYYWGQGTQVTVSS,polyreactivity (PSR sort gate),high polyreactivity
QVQLVESGGGVVQAGGSLRLSCAASGRIFYKYAMGWYRQAPGKAREFVATISSSGGSTYYADSVKGRFTISRDNAKNTAYLQMNSLKPEDTAVYYCAARYGRVTREYWGQGTQVTVSS,polyreactivity (PSR sort gate),high polyreactivity
QVQLVESGGGLVQAGGSLRLSCAASGSIFNWYAMGWYRKAPGKERELVAAIRSGGNTKYADSVKGRFTISRDNAKNTVYLQMTSLKPEDTAVYYCAAGVYHRRLEYYYWGQGSQVTVSS,polyreactivity (PSR sort gate),low polyreactivity
QVQLVESGGGLVQAGGSLRLSCAASGFTFTTYAMGWYRQAPGKEREFVAAITKRGGRTYYADSVKGRFTISRDYAKNTVYVQMNSLKPEDTAVYYCNKVVHSFPFPYRYDMDYWGQGTQVTVSS,polyreactivity (PSR sort gate),high polyreactivity
QVQLVESGGGLVQAGGSLRLSCAASGSIFGTYAIGWDRQAPGKERELVAAISRGGRTYYADSVKGRFTISRDNAKNTVYLQMNSLKPEDTAVYYCAARTVGLRGYYYWGQGTQVTVSS,polyreactivity (PSR sort gate),high polyreactivity
QVQLVESGGGLVQAGGSLRLSCAASGRILRTYAMGWYIQAPGKERELVAAISRSGGSTYYADSVKGRFTLSRDNAKNTVAVQMTSLKPEDTAVYYCHKAYGGRGSKDEYWGQGTQVTVSS,polyreactivity (PSR sort gate),high polyreactivity
QVQLVESGGGLVQAGGSLRLSCAASGSTFGLYVMGWYRQAPGQERELVAAISRRGGSTYYADSVKGRFTSSRDNAKNTVYLQMNSLKPEDTAVYYCNTYYRGGPYDVAYDYWGQGTQVTVSS,polyreactivity (PSR sort gate),high polyreactivity
QVQLVESGGGLVQAGGSLRLSCAASGFTFRYYAMVWYRQAPGKERELVAAITSGDSTYYADSVKGLFTISRDNAKNTVYLQMNSLKPEDTAVYYCAAYSWLFEGYEYWGQGTIVTVSS,polyreactivity (PSR sort gate),high polyreactivity
QVQLVESGGGLVQAGGSLRLSCAASGGTFRVYVMGWYRQAPGKERELVAAISRGGGSTYYADSVKGRFTISRDNAKNTVYLQMNSLKPEDTAVYYCAARVWRYPWRASEYDYWGQGTQVTVSS,polyreactivity (PSR sort gate),high polyreactivity
QVQLVESGGGLVQAGGSLRLSCAASGSTFIKNAMGWYRQAPGKERELVAAIPWGGGSTYYADSVKGRFTISRDNAKNTVYLQMNSLKPEDTAVYYCAAGNDIWRYYGYDYWGQGTQVTVSS,polyreactivity (PSR sort gate),low polyreactivity
QVQLVESGGGLVQAGGSLRLSCAASGSTFGFYTMGWYRQAPGKERELVAAISWSTGRTYYADSVKGRFTISRDNAKNTVYLQMNSLKPEDTAVYYCAARALDKYRFGGRYDYWGQGTQVTVSS,polyreactivity (PSR sort gate),low polyreactivity
QVQLVESGGGLVQAGRSLRLICAASGSTFKRYAMGWYRQAPGKERELVAAITWTGGRTYYADSVKGRFTISRDNANYTVYLQMNSLKPEDTAVYYCAADDPHTAYGYWGQGTQVTVSS,polyreactivity (PSR sort gate),high polyreactivity
QVQLVESGGGLVQAAGSLRLSCASSGSIIFYYAMGWYRQAPGNEREFVAAITRSGVRTYYADSVKGRFTISRDNAKNTVYLQMNSLIPEDTAVYYCIAEAYPYWYRGASREYDYWGQGTQVTVSS,polyreactivity (PSR sort gate),low polyreactivity
QVQLVESGGGLVQAGGSLRLSCAASGITFDAHAMGWYRQAPGKERELVARISSGGSTNYADSVKGRFTISRDNAKNTVYLQMNSLKPEDTAVYYCANSYLYGFDYWGQGTQVTVSS,polyreactivity (PSR sort gate),low polyreactivity
QVQLVESGGGLVQAGGSRRLSCAASGNTFTWYTMGWYRQAPAKERELVAVITSDGSTYYADSVKGRFTISRDNAKNTVYLQMNSLKPEDTAVYYCNALSADWYPEEDYWGQGTQVTVSS,polyreactivity (PSR sort gate),low polyreactivity
QVQLVESGGGLVQAGGSLRLSCAASGSTFVIYGMGWYRQAPGTERELVADITWIGGSTYYADSVKGRFTISRDNAKNTVYLQMNSLKPEDTAVYYCNADVRYGRDHWGQGTQVTVSS,polyreactivity (PSR sort gate),low polyreactivity
QVQLVESGGGLVLAGGRLRLSFAASGFIFYQYAKAWYRQATGKEWEFVAAISRNGGSTYYADSVKGRFTISRDNATNTVYLQMNSLKPEDTAVYYCNRDCGGLWSENGYWGQGPQVTVSS,polyreactivity (PSR sort gate),high polyreactivity
QDQHVESGGGLVQAGGSLRLSCAASGSTFYIYARGWYRQAPGKERELVARISGSGGSTYYADSVKGRFTISRDNAKNTVYLQMNSLKPEDTAVYYCAAEDIYKYYQYYAFPYYRYDYWGQGTQVTVSS,polyreactivity (PSR sort gate),low polyreactivity
QVQLVESGGGLVQAGASLRLSCAASGRTFAYYAMGWYRQAPGKERELVATITSSVGRTYYADSVKGRFTISRDNAKNTVYLQINSLKPEDTAVYYCNASDWGRTRGGGYPWLYRYDYWGQGTQVTVSS,polyreactivity (PSR sort gate),low polyreactivity
